Assay [1] has as its target T1, complement C3b, site-specifically biotinylated (human, UniProt P01024 23-667; P01024 749-1663, biotin, site-specific (site not given)). Briefly: SPR. (In general: SPR reads the build-up and loss of mass on a sensor chip optically.)
In assay [2] the target is T1, complement C3b, site-specifically …. As to the kind of experiment: SPR. This is another data set of the same source.
Assay [3] has the same target. Briefly: AlphaScreen or HTRF. On the technique in general: Bead proximity is the source of the signal in Alpha formats.

In general, Kd refers to the constant that tells how readily two partners part at equilibrium. Higher therefore signals lower affinity. The koff is the first-order rate constant of dissociation. The low end stands for a long-lived complex, the high end for a short-lived complex. Usually kon stands for the rate constant with which the complex forms. Low readings indicate slower complex formation, high ones faster complex formation.

B1: staphylococcal complement inhibitor SCIN-A, full-length wild type (natural protein)
chain: STSLPTSNEYQNEKLANELKSLLDELNVNELATGSLNTYYKRTIKISGQKAMYALKSKDFKKMSEAKYQLQKIYNEIDEALKSKY
In assay [1], B1 had a Kd of 0.096 ± 0.016 µM, a koff of 0.051 s⁻¹ and a kon of 550000 M⁻¹ s⁻¹. In assay [2], this molecule showed a Kd of 0.145 ± 0.056 µM.

B2: SCIN-A.R42A (natural protein)
chain: STSLPTSNEYQNEKLANELKSLLDELNVNELATGSLNTYYKATIKISGQKAMYALKSKDFKKMSEAKYQLQKIYNEIDEALKSKY
Regarding B2, in assay [1], the affinity, expressed as Kd, was 6.6 ± 0.62 µM; the koff is 0.58 s⁻¹; the kon stood at 89000 M⁻¹ s⁻¹. The molecule also displayed a Kd in assay [3] of 14 µM. Also, the Kd in assay [2] was 8.5 ± 0.12 µM.

B3: SCIN-A.Q49A (natural protein)
chain: STSLPTSNEYQNEKLANELKSLLDELNVNELATGSLNTYYKRTIKISGAKAMYALKSKDFKKMSEAKYQLQKIYNEIDEALKSKY
In assay [1], B3 registered a Kd of 0.069 ± 0.0083 µM, a koff of 0.051 s⁻¹ and a kon of 760000 M⁻¹ s⁻¹. In assay [3], the Kd was determined as 0.12 µM. The same molecule showed a Kd in assay [2] of 0.22 ± 0.098 µM.

B4: SCIN-A.R42A.Q49A (natural protein)
chain: STSLPTSNEYQNEKLANELKSLLDELNVNELATGSLNTYYKATIKISGAKAMYALKSKDFKKMSEAKYQLQKIYNEIDEALKSKY
As to B4, the Kd in assay [3] was determined as 14 µM; in assay [2], 15 µM.

The values are drawn from paper PMC4565748 (Molecular immunology, 2015).
